This note sets out measurements from IntAct's records for PubMed 11231575.

This assay concerns the target arp3_bovin ACTR3 (UniProt P61157).

In the case of “Src substrate cortactin (Mus musculus), Q60598 D20G;D21A”, the “effect of a mutation on the interaction” value is listed as “disrupting interaction”.
Turning to “Src substrate cortactin (Mus musculus), Q60598 W22A”, the “effect of a mutation on the interaction” value is recorded as “disrupting interaction”.
